The text below walks through data of PMC7105138, “Modeling cancer genomic data in yeast reveals selection against ATM function during tumorigenesis” (PLoS Genetics, 2020).

Some results are limits rather than exact numbers.

Assay in all cases: EMSA
Conditions in all cases: ATP, 5 mM Mg2+, 150 mM NaCl; 25 mM Tris-Cl pH 7.6, 150 mM NaCl (also 50, 250, 300 mM), 7.5% glycerol, 1 mM beta-mercaptoethanol, 0.125% Igepal, 5 mM MgCl2, with or without 5 mM ATP; 5 nM …

In data set [1] the test system is Rad50-L1240F-I23V (Saccharomyces cerevisiae).
The subject of data set [2] is Rad50-D67N (Saccharomyces cerevisiae).
The test system of data set [3] is Rad50-L1240F (Saccharomyces cerevisiae).
For data set [4], the system named is Rad50-D67Y (Saccharomyces cerevisiae).

Usually Kd stands for the equilibrium constant for the complex coming apart. Read a high Kd as lower affinity.

83-mer dsDNA oligonucleotide: the Kd in data set [1] was above 800 nM; in data set [2] it was 200 nM; in data set [3] it was above 800 nM; in data set [4], 320 nM.
